The values below are quoted from earlier work in publication PMC5755571.

The target in this data set is His64 (UniProt position 64, ILNNGHAFNVE).

As to “Carbonic anhydrase II (hCAII) (Homo sapiens)”, the pKa result is on record as “around 7”.
